Laboratory results: PMC6396981

Target: MTs coated with His-mCherry-SEPT9 (10 nM) (bovine (methods) or porcine (Key Resources Table) | human) (UniProt P02550)
Assay: single-molecule TIRF motility assay

## KIF5C(1–560)-L12_(KIF1A)-mCit (from UniProt P56536 1-560) (domain or fragment)
  fold landing rate against SEPT9-free MTs: 2 fold
